This assay has as its target bispecific binding molecule comprising a first specific binding molecule (comprising SEQ ID NO:265 a).
Sequence of bispecific binding molecule comprising a first specific binding molecule (comprising SEQ ID NO:265 a) (chain, as listed by the source, chain 1 of 3): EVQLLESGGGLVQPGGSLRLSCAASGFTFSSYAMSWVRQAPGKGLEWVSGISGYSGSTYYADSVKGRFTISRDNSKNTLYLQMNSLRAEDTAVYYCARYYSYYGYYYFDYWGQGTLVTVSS
Sequence of bispecific binding molecule comprising a first specific binding molecule (comprising SEQ ID NO:265 a) (chain, as listed by the source, chain 2 of 3): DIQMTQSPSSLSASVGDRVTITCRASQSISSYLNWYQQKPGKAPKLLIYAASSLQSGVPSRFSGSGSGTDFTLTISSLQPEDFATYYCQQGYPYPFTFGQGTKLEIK
Sequence of bispecific binding molecule comprising a first specific binding molecule (comprising SEQ ID NO:265 a) (chain, as listed by the source, chain 3 of 3): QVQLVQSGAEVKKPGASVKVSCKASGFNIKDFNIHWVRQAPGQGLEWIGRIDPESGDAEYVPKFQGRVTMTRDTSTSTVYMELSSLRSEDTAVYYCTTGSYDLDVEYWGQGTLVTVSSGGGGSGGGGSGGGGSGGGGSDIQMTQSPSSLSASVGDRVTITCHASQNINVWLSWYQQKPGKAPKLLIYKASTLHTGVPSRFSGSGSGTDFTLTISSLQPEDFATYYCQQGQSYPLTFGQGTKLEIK
With FIGITELLKSSAESLKISQAVHAAHAEINEAGREVVGSAE (modifications not checked) [peptide SEQ ID NO:241 (tag moiety …, no spacer, cargo peptide)], the equilibrium dissociation constant (Kd) amounted to 13 pM.

With FIGITELHKSSAESLKISQAVHAAHAEINEAGREVVGSAE (modifications not checked) [peptide SEQ ID NO:242 (tag moiety …, no spacer, cargo peptide)], the dissociation constant Kd stood at 19 pM.

Turning to FIGITELHK (modifications not checked) [tag moiety … (SEQ ID NO:4)], the dissociation constant Kd was determined as 15 pM.

Molecule FIGITELLK (modifications not checked) [tag moiety … (SEQ ID NO:3)] showed a Kd of 63 pM.

Molecule FIGITELLKGGSSSAESLKISQAVHAAHAEINEAGREVVGSAE (modifications not checked) [peptide SEQ ID NO:244 (tag moiety …, GGS spacer, cargo peptide)] yielded a Kd of 19 pM.

In turn, FIGITELHKGGSSSAESLKISQAVHAAHAEINEAGREVVGSAE (modifications not checked) [peptide SEQ ID NO:245 (tag moiety …, GGS spacer, cargo peptide)] yielded a Kd of 5.4 pM.

FIGITELHKGGSAVGALKVPRNQDWLGVPRQL (modifications not checked) [peptide SEQ ID NO:239 (tag moiety …, GGS spacer, cargo peptide)] yielded a Kd of 63 pM.

For FIGITELLKGGSAVGALKVPRNQDWLGVPRQL (modifications not checked) [peptide SEQ ID NO:238 (tag moiety …, GGS spacer, cargo peptide)], the Kd turned out to be 171 pM.

For orientation: Kd means the equilibrium constant for the complex coming apart.

Source of the values: patent EP4663199A1.
